Measured values reported in patent US10413588B2, “Probiotic function of human intelectin” (Wisconsin Alumni Research Foundation, priority 2015, dated 2019).
Where “and” joins values, the source holds several entries; their conditions need not be identical. Identical values can stand only once.

B1: hIntL-2: human intelectin-2, accession no. Q8WWU7, highly homologous to hIntL-1 (protein, listed as Homo sapiens)
chain: MLSMLRTMTRLCFLLFFSVATSGCSAAAASSLEMLSREFETCAFSFSSLPRSCKEIKERCHSAGDGLYFLRTKNGVVYQTFCDMTSGGGGWTLVASVHENDMRGKCTVGDRWSSQQGNKADYPEGDGNWANYNTFGSAEAATSDDYKNPGYYDIQAKDLGIWHVPNKSPMQHWRNSALLRYRTNTGFLQRLGHNLFGIYQKYPVKYRSGKCWNDNGPAIPVVYDFGDAKKTASYYSPYGQREFVAGFVQFRVFNNERAANALCAGIKVTGCNTEHHCIGGGGFFPQGKPRQCGDFSAFDWDGYGTHVKSSCSREITEAAVLLFYR
B2: Strep-mIntL-1: purified Strep-tagged mouse intelectin-1 (protein, UniProt O88310 19-298, looked up)
Intelectin-1a: AAEENLDTNRWGNSFFSSLPRSCKEIKQEHTKAQDGLYFLRTKNGVIYQTFCDMTTAGGGWTLVASVHENNMRGKCTVGDRWSSQQGNRADYPEGDGNWANYNTFGSAEAATSDDYKNPGYFDIQAENLGIWHVPNKSPLHNWRKSSLLRYRTFTGFLQHLGHNLFGLYKKYPVKYGEGKCWTDNGPALPVVYDFGDARKTASYYSPSGQREFTAGYVQFRVFNNERAASALCAGVRVTGCNTEHHCIGGGGFFPEGNPVQCGDFASFDWDGYGTHNGYS
modifications: Strep-tag

Columns and labels:
[1] = test system: infant male fecal microbiome; experiment: Flow cytometry binding to infant fecal microbiome; parameters: species or system human; conditions: fecal sample, 15 μg/mL intelectin + 10 mM CaCl2
Protocol: Human fecal samples provide a non-invasive proxy of the intestinal microbiome of a patient. The inventors have isolated the intestinal microbiome from human fecal samples and analyzed it for hIntL-1 binding. The isolated microbiome was fixed using an aqueous solution of 1% formaldehyde. Cells were stained as described elsewhere, using either a solution including calcium ions (100 mM) or one containing the calcium ion chelator EDTA. Microbes were exposed to 20 mM HEPES (pH 7.2), 150 mM NaCl, 10 mM CaCl2, 15 μg/mL Strep-tagged-hIntL-1, 0.1% bovine serum albumin (BSA), 0.05% tween-20, 2 μg/mL StrepMAB Classic conjugated to Oyster 645 (IBA Lifesciences, cat. no.: 2-1555-050). […] Cells are analyzed consecutively on a BD LSRII flow cytometer using identical instrument setting. […]
Humans have two intelectins: hIntL-1 and human intelectin-2 (hIntL-2). […] To compare hIntL-1 and hIntL02, the inventors isolated the intestinal mirobiome from human feces and analyzed it for hIntL-2 binding. […] The samples were processed and analyzed as described above. Cells were analyzed consecutively on a BD LSRII flow cytometer using identical instrument setting. […]

[2] = Mouse intelectin-1 SPR on immobilized carbohydrates; type: binding; conditions: referenced to biotin channel
Description: FIG. 23. Mouse intelectin-1 binding to immobilized carbohydrates. Purified Strep-mIntL-1 binding to immobilized carbohydrates monitored using SPR. […] Data are referenced to the biotin channel.

Molecule	fraction of cells of the infant microbiome bound by the intelectin [1]	carbohydrate binding on addition of EDTA [2]
B1	~32% and 32.2%	
B2		prevents carbohydrate binding
